Earlier results on 1 molecule are cited in patent publication US20230127008A1, “STAT3-TARGETED BASE EDITOR THERAPEUTICS FOR THE TREATMENT OF MELANOMA AND OTHER CANCERS” (The Broad Institute, Inc., priority 2020, published 2023).

In this series the test system is DNA. The conditions noted are these: SpCas9 mutation relative to SEQ ID NO: 74; UniProtKB-Q99ZW2 entry.

B1: 175-307 deletion: SpCas9 mutation relative to canonical SpCas9, SEQ ID NO: 74 (protein)
chain: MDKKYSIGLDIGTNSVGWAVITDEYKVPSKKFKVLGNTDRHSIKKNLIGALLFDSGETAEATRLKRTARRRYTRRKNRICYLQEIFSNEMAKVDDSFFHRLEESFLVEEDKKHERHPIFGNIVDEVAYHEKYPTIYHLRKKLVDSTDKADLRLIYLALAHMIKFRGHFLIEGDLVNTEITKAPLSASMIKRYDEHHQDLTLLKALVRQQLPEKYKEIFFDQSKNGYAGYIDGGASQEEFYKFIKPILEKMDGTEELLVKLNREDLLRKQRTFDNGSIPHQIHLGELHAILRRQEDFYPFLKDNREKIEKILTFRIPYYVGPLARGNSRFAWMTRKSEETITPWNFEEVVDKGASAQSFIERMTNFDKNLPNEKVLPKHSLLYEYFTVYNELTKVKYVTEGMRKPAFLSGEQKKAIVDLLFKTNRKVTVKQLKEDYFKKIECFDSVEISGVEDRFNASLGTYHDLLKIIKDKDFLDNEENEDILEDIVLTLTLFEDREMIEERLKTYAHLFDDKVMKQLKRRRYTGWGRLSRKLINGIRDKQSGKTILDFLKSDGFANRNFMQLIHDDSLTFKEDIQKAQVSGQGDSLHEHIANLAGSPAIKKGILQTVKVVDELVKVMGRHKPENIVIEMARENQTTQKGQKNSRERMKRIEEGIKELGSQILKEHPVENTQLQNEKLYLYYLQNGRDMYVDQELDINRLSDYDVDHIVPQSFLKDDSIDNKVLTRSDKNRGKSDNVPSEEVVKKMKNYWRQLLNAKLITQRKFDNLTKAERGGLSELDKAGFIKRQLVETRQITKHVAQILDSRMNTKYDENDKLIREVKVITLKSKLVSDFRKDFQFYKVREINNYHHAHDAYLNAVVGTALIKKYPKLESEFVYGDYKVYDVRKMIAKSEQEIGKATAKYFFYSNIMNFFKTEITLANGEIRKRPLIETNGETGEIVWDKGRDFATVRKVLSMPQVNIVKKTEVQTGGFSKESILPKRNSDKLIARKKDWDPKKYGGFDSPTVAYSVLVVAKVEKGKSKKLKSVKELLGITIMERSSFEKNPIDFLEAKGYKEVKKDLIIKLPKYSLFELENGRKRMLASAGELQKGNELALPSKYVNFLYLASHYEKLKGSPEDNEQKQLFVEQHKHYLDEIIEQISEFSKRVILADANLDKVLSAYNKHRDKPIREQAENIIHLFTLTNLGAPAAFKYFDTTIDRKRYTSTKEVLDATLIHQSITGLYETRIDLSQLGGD
modifications: Streptococcus pyogenes
Consider B1, for which the “decreased DNA cleavage” value is on record as “About 50% decreased DNA cleavage”.
